Here are results for one molecule from PMC6848426 (Rice, 2019).

In this assay the target is T1, GST-OsSGT1 (rice (Oryza sativa L.), UniProt Q0JL44 1-367).
T1 sequence (looked up): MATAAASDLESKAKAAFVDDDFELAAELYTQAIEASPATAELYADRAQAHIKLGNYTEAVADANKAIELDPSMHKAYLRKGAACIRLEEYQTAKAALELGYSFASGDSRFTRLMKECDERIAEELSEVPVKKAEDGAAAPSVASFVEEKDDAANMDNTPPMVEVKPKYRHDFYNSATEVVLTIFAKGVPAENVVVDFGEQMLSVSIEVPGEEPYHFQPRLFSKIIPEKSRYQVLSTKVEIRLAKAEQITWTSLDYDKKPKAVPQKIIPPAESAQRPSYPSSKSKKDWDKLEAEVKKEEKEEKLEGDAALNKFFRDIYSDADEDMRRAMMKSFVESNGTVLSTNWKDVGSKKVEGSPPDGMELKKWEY
The assay can be described thus: pull-down; GST-, GST-fusion-coupled beads used to capture the His tag or His-OsSAPK9; detection with HRP-conjugated anti-His antibody. As to conditions: both partners purified.

B1: His-OsSAPK9 (natural protein, rice (Oryza sativa L.), UniProt Q75V57 1-361, looked up)
chain: MERAAAGPLGMEMPIMHDGDRYELVKEIGSGNFGVARLMRNRASGDLVAVKYIDRGEKIDENVQREIINHRSLRHPNIIRFKEVILTPTHLAIVMEYASGGELFERICSAGRFSEDEARFFFQQLISGVSYCHSMQVCHRDLKLENTLLDGSTAPRLKICDFGYSKSSVLHSQPKSTVGTPAYIAPEVLLKKEYDGKIADVWSCGVTLYVMLVGAYPFEDPEDPKNFRKTIQKILGVQYSIPDYVHISPECRDLITRIFVGNPASRITMPEIKNHPWFMKNIPADLMDDGMVSNQYEEPDQPMQNMNEIMQILAEATIPAAGTSGINQFLTDSLDLDDDMEDMDSDLDLDIESSGEIVYAM
notes: also called histidine-tagged OsSAPK9 protein
As to B1, the binding result was “binds”.
